For the assay, the target named is microtubules in LLCPK cells (pig (endogenous in LLCPK)) (UniProt P02550). The assay is described as follows: FRAP; living LLCPK cells expressing GFP-tau, 37°C; fluorescence recovery integrated along line scans on single photobleached microtubules; half time from a first-order rate constant (t1/2 = ln2/k).
Chain of UniProt P02550 (P02550 whole entry, chain 1 of 2): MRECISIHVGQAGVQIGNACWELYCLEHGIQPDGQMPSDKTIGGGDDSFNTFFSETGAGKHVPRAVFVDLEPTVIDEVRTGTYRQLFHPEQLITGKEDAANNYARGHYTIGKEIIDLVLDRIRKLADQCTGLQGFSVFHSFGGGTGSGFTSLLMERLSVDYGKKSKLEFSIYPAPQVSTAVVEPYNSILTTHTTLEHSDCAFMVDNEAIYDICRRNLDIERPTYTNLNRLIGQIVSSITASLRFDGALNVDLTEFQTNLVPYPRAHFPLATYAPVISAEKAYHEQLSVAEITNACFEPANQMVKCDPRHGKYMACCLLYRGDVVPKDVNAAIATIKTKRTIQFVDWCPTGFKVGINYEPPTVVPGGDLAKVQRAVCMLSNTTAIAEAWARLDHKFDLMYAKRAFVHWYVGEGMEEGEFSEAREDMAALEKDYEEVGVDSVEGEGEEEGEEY
Chain of UniProt P02550 (Q767L7 whole entry, chain 2 of 2, further chain): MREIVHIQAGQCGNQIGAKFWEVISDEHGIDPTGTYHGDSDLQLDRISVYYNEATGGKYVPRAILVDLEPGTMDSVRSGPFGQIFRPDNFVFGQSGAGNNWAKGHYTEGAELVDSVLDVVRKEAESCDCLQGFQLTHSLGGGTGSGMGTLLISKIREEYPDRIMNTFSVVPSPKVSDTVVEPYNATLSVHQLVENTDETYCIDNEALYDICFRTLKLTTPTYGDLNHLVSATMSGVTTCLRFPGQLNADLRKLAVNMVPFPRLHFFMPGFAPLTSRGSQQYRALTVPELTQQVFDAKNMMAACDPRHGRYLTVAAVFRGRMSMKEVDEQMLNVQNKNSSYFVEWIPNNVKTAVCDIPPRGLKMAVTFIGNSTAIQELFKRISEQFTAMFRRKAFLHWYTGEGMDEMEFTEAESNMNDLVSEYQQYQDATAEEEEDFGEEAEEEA

Substance “GFP-tau (isoform with three microtubule-binding repeats) (natural protein)” displayed a half time of fluorescence recovery on microtubules of 6.8 s.
